Measured values published in PMC9457175.

Target: KARS1 (human), Q15046
Test: RNA immunoprecipitation with qRT-PCR
Details: remark: other sources report otherwise

KARS1 (human), Q15046, sequence (Q15046 whole entry): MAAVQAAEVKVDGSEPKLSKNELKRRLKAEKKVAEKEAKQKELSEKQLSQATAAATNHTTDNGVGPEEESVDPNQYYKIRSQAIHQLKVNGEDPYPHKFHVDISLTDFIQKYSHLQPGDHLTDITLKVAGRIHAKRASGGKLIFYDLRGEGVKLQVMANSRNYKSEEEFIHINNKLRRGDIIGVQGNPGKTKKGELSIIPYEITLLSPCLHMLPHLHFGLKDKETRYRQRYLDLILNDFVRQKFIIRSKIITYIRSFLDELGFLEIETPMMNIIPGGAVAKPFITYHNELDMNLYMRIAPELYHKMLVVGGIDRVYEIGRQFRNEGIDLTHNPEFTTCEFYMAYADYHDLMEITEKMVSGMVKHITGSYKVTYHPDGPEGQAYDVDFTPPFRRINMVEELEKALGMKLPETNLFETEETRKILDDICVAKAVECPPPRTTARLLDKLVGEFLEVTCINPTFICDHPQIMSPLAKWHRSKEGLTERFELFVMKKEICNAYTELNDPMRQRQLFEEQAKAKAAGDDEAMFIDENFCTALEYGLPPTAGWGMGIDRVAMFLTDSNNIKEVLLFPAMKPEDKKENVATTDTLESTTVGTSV

B1: AIMP1, Q12904 (natural protein)
chain: MANNDAVLKRLEQKGAEADQIIEYLKQQVSLLKEKAILQATLREEKKLRVENAKLKKEIEELKQELIQAEIQNGVKQIPFPSGTPLHANSMVSENVIQSTAVTTVSSGTKEQIKGGTGDEKKAKEKIEKKGEKKEKKQQSIAGSADSKPIDVSRLDLRIGCIITARKHPDADSLYVEEVDVGEIAPRTVVSGLVNHVPLEQMQNRMVILLCNLKPAKMRGVLSQAMVMCASSPEKIEILAPPNGSVPGDRITFDAFPGEPDKELNPKKKIWEQIQPDLHTNDECVATYKGVPFEVKGKGVCRAQTMSNSGIK
- fold enrichment of mRNA (anti-FLAG RIP over IgG): 9.7 fold
